# Test results reported in PMC2174254 (The Journal of Cell Biology, 1999).
# B1: BiP, heavy chain binding protein (natural protein)
# chain: not shown
# Experiments:
# Experiment in all cases: cross-linking
# [1] = molecular target: T1, PDI deletion mutant Δ222–302 (S. cerevisiae, UniProt P17967 29-522, Δ222–302, N-glycosylated (endoglycosidase H sensitive))
# T1 sequence (looked up): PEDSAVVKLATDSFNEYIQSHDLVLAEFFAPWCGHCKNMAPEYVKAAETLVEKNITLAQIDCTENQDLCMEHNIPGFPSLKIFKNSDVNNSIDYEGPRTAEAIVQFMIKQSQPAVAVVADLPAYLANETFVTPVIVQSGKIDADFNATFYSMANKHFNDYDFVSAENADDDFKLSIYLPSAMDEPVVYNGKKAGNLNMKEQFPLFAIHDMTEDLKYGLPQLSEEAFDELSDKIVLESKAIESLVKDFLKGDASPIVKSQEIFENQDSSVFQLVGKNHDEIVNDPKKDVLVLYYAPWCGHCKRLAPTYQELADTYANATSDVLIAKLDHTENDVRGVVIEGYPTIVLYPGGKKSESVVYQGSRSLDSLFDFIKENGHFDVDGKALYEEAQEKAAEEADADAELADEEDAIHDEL
# [2] = molecular target: T2, PDI deletion mutant Δ252–277 (S. cerevisiae, UniProt P17967 29-522, Δ252–277, N-glycosylated (endoglycosidase H sensitive))
# T2 sequence (looked up): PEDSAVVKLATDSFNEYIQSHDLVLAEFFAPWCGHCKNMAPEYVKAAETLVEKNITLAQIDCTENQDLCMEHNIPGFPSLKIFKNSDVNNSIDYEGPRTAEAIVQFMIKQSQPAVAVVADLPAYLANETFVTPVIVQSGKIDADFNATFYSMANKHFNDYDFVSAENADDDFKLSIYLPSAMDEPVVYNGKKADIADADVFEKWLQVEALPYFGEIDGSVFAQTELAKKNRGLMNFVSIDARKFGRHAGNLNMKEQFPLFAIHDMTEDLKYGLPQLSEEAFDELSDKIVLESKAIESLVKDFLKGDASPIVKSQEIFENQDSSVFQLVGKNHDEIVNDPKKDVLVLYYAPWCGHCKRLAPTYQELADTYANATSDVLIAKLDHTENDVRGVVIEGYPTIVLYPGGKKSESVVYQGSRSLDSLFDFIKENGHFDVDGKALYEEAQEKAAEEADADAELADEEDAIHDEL
# [3] = molecular target: T1, PDI deletion mutant Δ222–302; remark: listed apart in the source
# [4] = molecular target: T2, PDI deletion mutant Δ252–277; remark: listed apart in the source
binder,measurement,setting,value
B1,fold decrease of BiP coimmunoprecipitated with Δgpαf present against absent,[1],4.7 fold
same,fold reduction of BiP coimmunoprecipitated with Δgpαf present against absent,[2],1.3 fold
same,BiP immunoprecipitated relative to wild-type PDI,[3],2.7 fold
same,fold reduction of affinity compared with wild-type PDI,[4],~2.8 fold
